{"source": "patent US20230105457A1", "about": "“Immunogenic Compounds For Treatment Of Adrenal Cancer” (ENTEROME S.A., priority 2019, published 2023)", "key": {"HLA-A*0201": {"biological_target": "HLA-A*0201 (Homo sapiens, UniProt P04439, D140Y/D185E/D98H/E176V/E277Q/G131W/G231S/I119V/I121R/I166T/I218V/L300P/L318F/N151K/N90K/P208A/P217A/Q86G/Q94H/R138H/R169H/T345S)", "details": "for Mean fluorescence intensity: T2 cells"}, "[1]": {"system": "CD8 T cells from PBMC of HLA-A*02 healthy donors", "assay": "Detection of peptide-specific CD8 T cells with pMHC multimers after in vitro amplification (Example 14)", "type": "cell-based, human", "details": "one HLA-A2 healthy donor, after in vitro amplification with bacteria peptide loaded T2 cells", "procedure": "Identification and quantification of T cells specific clones were performed using peptide MHC multimers (pMHC). pMHC multimers are recombinantly produced and coupled with fluorescent labels. Binding of pMHC multimers to T cells allows identification and sorting by flow cytometry of specific T cells harboring TCRs able to specifically recognize selected pMHC complexes.\nIn vitro amplification method and specific pMHC multimers have been used for identification of IL13RA2-L-, BIRC5-B1- and FOXM1-B2-specific T cells. pMHC multimers were generated for all the bacteria peptides and their respective human counterpart. PBMCs from several HLA-A*02 healthy donors (up to 19 donors) were collected, enriched after CD137 and CD8 selection and subjected to multiple rounds of in vitro amplification with bacteria peptides loaded T2 cells to increase the number of specific T cell clones. Detection of bacteria and human peptide-specific CD8 T cells using cytometry analysis with the fluorescent multimer was performed on enriched CD8 T cell populations."}}, "note": "Like-named read-outs stand apart in the source and are kept apart here.", "data": [{"sequence": "WLPFGFILI [IL13RA2-H, reference compound]", "values": [{"measurement": "Concentration of peptide that induces 20% of HLA-A2 expression", "setting": "HLA-A*0201; T2 cell line, HLA-A*0201, Example 13, protocol as in Example 3", "result": 62.3, "unit": "µM"}, {"measurement": "Concentration that induces 20% of expression of the HLA-A*0201", "setting": "HLA-A*0201; T2 cells (Example 1)", "result": 100, "unit": "µM"}, {"measurement": "Mean fluorescence intensity", "setting": "HLA-A*0201; peptide at 0.1 μM (Example 1)", "result": 7.46}, {"measurement": "Mean fluorescence intensity", "setting": "HLA-A*0201; peptide at 1 μM (Example 1)", "result": 9.41}, {"measurement": "Mean fluorescence intensity", "setting": "HLA-A*0201; peptide at 10 μM (Example 1)", "result": 11.61}, {"measurement": "Mean fluorescence intensity", "setting": "HLA-A*0201; peptide at 100 μM (Example 1)", "result": 18.64}, {"measurement": "Peptide-specific CD8 T cells detected (pMHC multimer)", "setting": "[1]", "result": 0.22, "unit": "%"}]}]}
